Measured values reported in article PMC3169606, “Pub1p C-Terminal RRM Domain Interacts with Tif4631p through a Conserved Region Neighbouring the Pab1p Binding Site” (PLoS ONE, 2011).

T1: Pub1p R3 (RRM3, TRRM) (Saccharomyces cerevisiae, UniProt P32588 315-414)
T1 sequence: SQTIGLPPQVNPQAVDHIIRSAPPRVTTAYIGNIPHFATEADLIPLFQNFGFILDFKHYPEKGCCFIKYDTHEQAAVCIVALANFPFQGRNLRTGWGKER

T2: Tif4631p (1–402) (Saccharomyces cerevisiae, UniProt P39935 1-402)
T2 construct: Cloned 'following equivalent methods' to the Pub1p constructs (same modified pET28 vector); Unlabelled or 15N-labelled according to the NMR experiment; source: E. coli BL21(DE3), purified (HisTrap, TEV digestion, second nickel column, anion exchange MonoQ); not shown: thioredoxin A, N-terminal, cleaved; His6, internal, cleaved
T2 sequence (looked up): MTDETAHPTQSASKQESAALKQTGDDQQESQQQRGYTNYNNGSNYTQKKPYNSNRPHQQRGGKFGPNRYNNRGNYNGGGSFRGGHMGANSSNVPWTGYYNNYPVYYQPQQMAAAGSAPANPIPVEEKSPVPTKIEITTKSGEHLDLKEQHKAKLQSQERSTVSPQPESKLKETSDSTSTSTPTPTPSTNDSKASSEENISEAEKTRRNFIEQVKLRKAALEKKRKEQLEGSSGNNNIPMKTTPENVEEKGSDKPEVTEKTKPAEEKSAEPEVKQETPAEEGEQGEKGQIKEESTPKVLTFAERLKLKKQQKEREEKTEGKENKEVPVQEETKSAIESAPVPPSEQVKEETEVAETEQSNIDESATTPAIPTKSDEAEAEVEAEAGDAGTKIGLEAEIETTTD

T3: Tif4631p (1–184) (Saccharomyces cerevisiae, UniProt P39935 1-184)
T3 construct: Tif4631p (yeast eIF4G1), Saccharomyces cerevisiae, residues 1-184; Cloned 'following equivalent methods' to the Pub1p constructs; source: E. coli BL21(DE3), purified (HisTrap, TEV digestion, second nickel column, anion exchange MonoQ); not shown: thioredoxin A, N-terminal, cleaved; His6, internal, cleaved
T3 sequence (looked up): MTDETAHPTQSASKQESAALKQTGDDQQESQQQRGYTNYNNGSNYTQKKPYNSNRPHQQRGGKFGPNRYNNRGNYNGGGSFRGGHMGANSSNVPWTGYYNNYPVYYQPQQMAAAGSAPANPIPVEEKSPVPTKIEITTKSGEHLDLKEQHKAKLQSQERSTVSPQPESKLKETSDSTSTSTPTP

T4: Pub1p R12 (RRM1-RRM2) (Saccharomyces cerevisiae, UniProt P32588 32-242)
T4 sequence: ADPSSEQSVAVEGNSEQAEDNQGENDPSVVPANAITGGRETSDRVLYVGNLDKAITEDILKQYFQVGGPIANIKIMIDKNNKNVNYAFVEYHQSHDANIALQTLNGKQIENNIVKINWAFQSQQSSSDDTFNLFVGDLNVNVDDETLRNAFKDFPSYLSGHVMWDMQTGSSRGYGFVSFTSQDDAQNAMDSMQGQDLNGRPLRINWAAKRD


Experiments:
[1] = target: T1, Pub1p R3 (RRM3, TRRM); experiment: NMR titration; 1:1 protein:RNA; 25 mM potassium phosphate pH 7.0 (6.5-7.0 in general NMR methods), 25 mM NaCl, 0.5 mM DTT, 25 C; 100 µM protein, RNA up to 400 µM (R3) or 1:1 (R12); details: protein: recombinant; tags: TrxA-6xHis tag removed by TEV; chain copies: 2; single strand
[2] = target: T1, Pub1p R3 (RRM3, TRRM); experiment: NMR titration; 2:1 protein:RNA; 25 mM potassium phosphate pH 7.0 (6.5-7.0 in general NMR methods), 25 mM NaCl, 0.5 mM DTT, 25 C; 100 µM protein, RNA up to 400 µM (R3) or 1:1 (R12); details: protein: recombinant; tags: TrxA-6xHis tag removed by TEV; chain copies: 2; single strand
[3] = target: T1, Pub1p R3 (RRM3, TRRM); experiment: NMR titration; 1:1 protein:RNA; Kd n.d.; 25 mM potassium phosphate pH 7.0 (6.5-7.0 in general NMR methods), 25 mM NaCl, 0.5 mM DTT, 25 C; 100 µM protein, RNA up to 400 µM (R3) or 1:1 (R12); details: protein: recombinant; tags: TrxA-6xHis tag removed by TEV; chain copies: 2; single strand
[4] = target: T2, Tif4631p (1–402); experiment: NMR titration; 1H-15N HSQC of 100 µM 15N-labelled Tif4631p (1–402) with 120 µM unlabelled Pub1p R3 added; 25 mM potassium phosphate pH 7.0, 25 mM NaCl, 0.1 mM DTT, 25°C; details: both partners purified
[5] = target: T3, Tif4631p (1–184); experiment: cross-linking; glutaraldehyde by vapour diffusion, 16 h at 4°C; Pub1p proteins 10 µM, Tif4631p (1–402) 1 µM, Tif4631p (1–184) 4 µM; 25 mM potassium phosphate, 150 mM NaCl, 0.1 mM DTT, pH 8.0; 15% SDS-PAGE, silver stain; details: both partners purified
[6] = target: T4, Pub1p R12 (RRM1-RRM2); experiment: NMR titration; slow exchange; 25 mM potassium phosphate pH 7.0 (6.5-7.0 in general NMR methods), 25 mM NaCl, 0.5 mM DTT, 25 C; 100 µM protein, RNA up to 400 µM (R3) or 1:1 (R12); details: protein: recombinant; tags: TrxA-6xHis tag removed by TEV; single strand
[7] = target: T4, Pub1p R12 (RRM1-RRM2); experiment: NMR titration; intermediate exchange; 25 mM potassium phosphate pH 7.0 (6.5-7.0 in general NMR methods), 25 mM NaCl, 0.5 mM DTT, 25 C; 100 µM protein, RNA up to 400 µM (R3) or 1:1 (R12); details: protein: recombinant; tags: TrxA-6xHis tag removed by TEV; single strand

Binder | Kd [2] [µM] | binding result [3] | other results
AGAGAGAG (ssRNA) [(AG)4] | – | – | Kd [1]: 88.3 µM
AAAAAAAAAAAAAA (ssRNA) [A14] | 78.5 | – | –
UUUUUUUUUUUU (ssRNA) [U12] | – | binds | –
UUUUUUUUUU (ssRNA) [U10] | – | binds | –
Pub1p R3 (RRM3 domain, residues 315–414) (domain or fragment, Saccharomyces cerevisiae, UniProt P32588 315-414, looked up, also called Pub1p TRRM; Pub1p RRM3; source: E. coli BL21(DE3), purified (HisTrap, TEV digestion, second nickel column, cation exchange); not shown: thioredoxin A, N-terminal, cleaved; His6, internal, cleaved) SQTIGLPPQVNPQAVDHIIRSAPPRVTTAYIGNIPHFATEADLIPLFQNFGFILDFKHYPEKGCCFIKYDTHEQAAVCIVALANFPFQGRNLRTGWGKER | – | – | binding result [4]: binds; binding result [5]: binds
UAUAUAUAUAUA (ssRNA) [(UA)6] | – | binds | –
UUUUUUUUUUUUUU (ssRNA) [U14] | 2.16 | – | Kd [6]: < 0.25 µM
UAUAUAUAUAUAUA (ssRNA) [(UA)7] | < 1 | – | Kd [7]: 0.894 µM
CUCUCUCUCUCU (ssRNA) [(CU)6] | – | – | Kd [1]: 18.8 µM
